{
  "source": "patent US10456446B2",
  "about": "“Use of human small leucine zipper protein in osteogenesis procedure” (Korea University Research and Business Foundation, priority 2013, dated 2019)",
  "molecules": {"B1": {"name": "sLZIP: human small leucine-zipper protein, isoform of LZIP, 354 amino acids, no transmembrane domain, GenBank FJ263669, SEQ ID NO: 1 (protein, listed as Homo sapiens)", "chain": "MELELDAGDQDLLAFLLEESGDLGTAPDEAVRAPLDWALPLSEVPSDWEVDDLLCSLLSPPASLNILSSSNPCLVHHDHTYSLPRETVSMDLESESCRKEGTQMTPQHMEELAEQEIARLVLTDEEKSLLEKEGLILPETLPLTKTEEQILKRVRRKIRNKRSAQESRRKKKVYVGGLESRVLKYTAQNMELQNKVQLLEEQNLSLLDQLRKLQAMVIEISNKTSSSSMYSSDTRGSLPAEHGVLSRQLRALPSEDPYQLELPALQSEVPKDSTHQWLDGSDCVLQAPGNTSCLLHYMPQAPSAEPPLEWPFPDLFSEPLCRGPILPLQANLTRKGGWLPTGSPSVILQDRYSG"}},
  "key": {"Runx2": {"biological_target": "T1, Runx2 (Homo sapiens, UniProt Q13950)", "T1 construct": "expressed in transfected cells; host or cells: 293T", "T1 sequence (Q13950 whole entry, species assumed)": "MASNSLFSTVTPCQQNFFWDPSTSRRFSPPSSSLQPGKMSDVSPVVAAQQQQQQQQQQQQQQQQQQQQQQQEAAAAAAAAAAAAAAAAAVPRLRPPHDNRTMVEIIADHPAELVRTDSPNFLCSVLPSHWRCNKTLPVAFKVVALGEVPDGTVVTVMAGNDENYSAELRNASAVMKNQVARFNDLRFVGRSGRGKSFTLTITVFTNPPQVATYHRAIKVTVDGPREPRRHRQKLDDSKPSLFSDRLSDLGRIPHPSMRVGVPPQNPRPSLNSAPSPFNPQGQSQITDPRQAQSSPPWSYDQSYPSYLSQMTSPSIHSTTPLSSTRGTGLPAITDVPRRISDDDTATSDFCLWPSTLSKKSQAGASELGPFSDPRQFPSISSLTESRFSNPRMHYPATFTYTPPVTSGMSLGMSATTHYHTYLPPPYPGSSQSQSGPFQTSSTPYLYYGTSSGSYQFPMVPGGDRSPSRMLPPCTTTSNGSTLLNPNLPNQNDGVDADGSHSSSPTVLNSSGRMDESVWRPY", "test": "Runx2 transcriptional activity, luciferase reporter with 6 copies of Runx2 response elements in 293T cells", "format": "cell-based", "method": "Appropriately transfected cells were washed with cold PBS twice, and a reporter lysis buffer (Promega) was used and lysed in a culture dish. Luciferase analysis was performed using a luciferase analysis system (Promega Corporation, Madison, Wis.). A luciferase activity was recorded in Luminometer 20/20^n (Turner BioSystems, Sunnyvale, Calif.) according to instructions of the manufacturer. The luciferase activity was normalized to a β-galactosidase activity. For β-galactosidase analysis, CMV-β-galactosidase was transfected with luciferase reporter genes. All pieces of data were represented as mean±standard deviation of the results from at least three independent experiments.\nTherefore, in order to characterize a potential role of sLZIP in the transcriptional activity of Runx2 by inhibiting the transcriptional activity of PPARγ2, the transcriptional activity of Runx2 was examined. For this purpose, 293T cells were temporarily transfected with Runx2 (0.5 μg), β-galactosidase (0.1 μg), 6 copies of Runx2 response elements (0.2 μg) and sLZIP at different contents (0.1 μg to 0.5 μg) (FIG. 7A). PPARγ2 (0.5 μg), β-galactosidase, Runx2, 6 copies of Runx2 response elements and sLZIP (0.5 μg) were expressed in the 293T cells (FIG. 7B). 293T cells were temporarily transfected with HDAC3 (0.5 μg), Runx2, β-galactosidase, 6 copies of Runx2 response elements and sLZIP at different contents (0.25 and 0.5 μg) (FIG. 7C). A promoter activity was measured by luciferase analysis. A luciferase activity was normalized to a β-galactosidase activity and represented as a relative activity (fold change). All experiments were repeated three times and data was represented as mean±standard deviation. A medium of primary MSCs and C3H10T1/2 cells of a human was exchanged with a differentiation medium in which 50 μg/mL of ascorbic acid, 10 mM of β-glycerol phosphate and 10% FBS were contained for 8 days (FIG. 7D). A medium of MEF cells was exchanged with a differentiation medium in which 50 μg/mL of ascorbic acid, 10 mM of β-glycerol phosphate and 10% FBS were contained for 8 days. […]"}, "MEF cells": {"test_system": "MEF cells", "test": "Osteoblast differentiation in MEF cells, alizarin red staining", "format": "cell-based", "conditions": "differentiation medium for 8 days", "method": "Primary human mesenchymal stem cells (MSCs), C3H10T1/2, 293T and MEF cells were cultured in a DMEM to which thermally inactivated 10% FBS and penicillin (100 U/mL)/streptomycin (100 μg/mL) were added. All cell types were cultured in a humidified incubator containing CO2 5% under a temperature condition of 37° C. In order to induce osteoblast differentiation, the medium was exchanged with a DMEM in which 50 μg/mL of ascorbic acid, 10 mM of β-glycerophosphate and 10% FBS were contained for 8 days. The differentiation medium was changed once every two days.\nTherefore, in order to characterize a potential role of sLZIP in the transcriptional activity of Runx2 by inhibiting the transcriptional activity of PPARγ2, the transcriptional activity of Runx2 was examined. For this purpose, 293T cells were temporarily transfected with Runx2 (0.5 μg), β-galactosidase (0.1 μg), 6 copies of Runx2 response elements (0.2 μg) and sLZIP at different contents (0.1 μg to 0.5 μg) (FIG. 7A). PPARγ2 (0.5 μg), β-galactosidase, Runx2, 6 copies of Runx2 response elements and sLZIP (0.5 μg) were expressed in the 293T cells (FIG. 7B). 293T cells were temporarily transfected with HDAC3 (0.5 μg), Runx2, β-galactosidase, 6 copies of Runx2 response elements and sLZIP at different contents (0.25 and 0.5 μg) (FIG. 7C). A promoter activity was measured by luciferase analysis. […]"}},
  "data": [
    {"molecule": "B1", "values": [
      {"measurement": "transcriptional activity of Runx2", "setting": "Runx2; HDAC3 0.5 μg co-expressed, sLZIP 0.25 and 0.5 μg", "value": "restored the transcriptional activity of Runx2"},
      {"measurement": "transcriptional activity of Runx2", "setting": "Runx2; PPARγ2 0.5 μg co-expressed, sLZIP 0.5 μg", "value": "restored the activity of Runx2"},
      {"measurement": "increase of the transcriptional activity of Runx2 (factor)", "setting": "Runx2; sLZIP 0.1 μg to 0.5 μg", "value": "about 4"},
      {"measurement": "osteoblast differentiation and bone nodule formation", "setting": "MEF cells", "value": "promoted osteoblast differentiation and bone nodule formation"}
    ]}
  ]
}
